Assay results reported in the supplement of paper PMC7877785.
± gives the uncertainty stated by the source.

Assay: self-splicing fitness, log relative to wild type (ln ratio); higher = more splicing; Tetrahymena group I intron in knt gene, E. coli kanamycin selection, DiMSum; sequences stand for … in CUCUCU…GGAGGGAAAAGUUAUCAGGCAUGCACCUGGUAGCUAGUCUUUAAACCAAUAGAUUGCAUCGGUUUAAAAGGCAAGACCGUCAAAUUGCGGGAAAGGGGUCAACAGCCGUUCAGUACCAAGUCUCAGGGGAAACUUUGAGAUGGCCUUGCAAAGGGUAUGGUAAUAAGCUGACGGACAUGGUCCUAACCACGCAGCCAAGUCCUAAGUCAACAGAUCUUCUGUUGAUAUGGAUGCAGUUCACAGACUAAAUGUCGGUCGGGGAAGAUGUAUUCUUCUCAUAAGAUAUAGUCGGACCUCUCCUUAAUGGGAGCUAGCGGAUGAAGUGAUGCAACACUGGAGCCGCUGGGAACUAAUUUGUAUGCGAAAGUAUAUUGAUUAGUUUUGGAGUACUCGUGGUCG
In short: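 A randomised library covering all eight P1ex-region intron nucleotides was built with the intron in the knt kanamycin-resistance gene on pET-22b(+) and held in E. coli BL21(DE3). Cells were grown overnight at 37°C or 30°C on LB agar, with or without 25 μg/mL kanamycin, plus 100 μg/mL carbenicillin, 50 μM IPTG and 0.2% rhamnose, and pooled colonies were amplicon-sequenced on an Illumina HiSeq 2500. DiMSum fitness is the error-weighted combination of wild-type-normalised replicate fold changes, kanamycin versus none.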

Row | Sequence | self-splicing fitness (ln) (30 °C) | self-splicing fitness (ln) (37 °C)
1 | UAGAAGCAAUAUUACGUGUC | -3.27 ± 0.22 | -2.31 ± 0.23
2 | UAGAAGCAAUAUUACGUUAA | -3.14 ± 0.16 | -1.39 ± 0.15
3 | UAGCAGCAAUAUUACGACGA | -0.341 ± 0.07 | 0.256 ± 0.079
4 | UAGCAGCAAUAUUACGAGAG | -2.8 ± 0.2 | -3.15 ± 0.29
5 | UAGCAGCAAUAUUACGAGGU | -3.43 ± 0.15 | -1.7 ± 0.13
6 | UAGCAGCAAUAUUACGAUAC | -4.05 ± 0.4 | -2.2 ± 0.33
7 | UAGCAGCAAUAUUACGCGGA | -0.908 ± 0.079 | -0.843 ± 0.082
8 | UAGCAGCAAUAUUACGCUGC | -2.86 ± 0.35 | -2.2 ± 0.32
9 | UAGCAGCAAUAUUACGCUGU | -3.59 ± 0.25 | -3.42 ± 0.35
10 | UAGCAGCAAUAUUACGGAGA | -3.24 ± 0.33 | -2.18 ± 0.14
11 | UAGCAGCAAUAUUACGGGGA | -2.85 ± 0.2 | -1.73 ± 0.12
12 | UAGCAGCAAUAUUACGGUGA | -0.912 ± 0.08 | -0.0764 ± 0.096
13 | UAGCAGCAAUAUUACGUCCU | -1.1 ± 0.068 | -0.435 ± 0.087
14 | UAGCAGCAAUAUUACGUCGC | -4.47 ± 0.24 | -2.73 ± 0.22
15 | UAGCAGCAAUAUUACGUCUC | -1.96 ± 0.17 | -0.915 ± 0.15
16 | UAGCAGCAAUAUUACGUGCG | -0.801 ± 0.076 | 0.26 ± 0.081
17 | UAGCAGCAAUAUUACGUGGU | -3.87 ± 0.2 | -2.79 ± 0.16
18 | UAGGAGCAAUAUUACGAAUC | – | -2.02 ± 0.26
19 | UAGGAGCAAUAUUACGACUU | -0.556 ± 0.14 | 0.485 ± 0.19
20 | UAGGAGCAAUAUUACGAGCC | -3.1 ± 0.3 | -2.82 ± 0.47
21 | UAGGAGCAAUAUUACGAGCG | -3.58 ± 0.4 | -1.31 ± 0.35
22 | UAGGAGCAAUAUUACGAUUU | -2.44 ± 0.15 | -1.4 ± 0.24
23 | UAGGAGCAAUAUUACGCUUA | -1.49 ± 0.18 | -0.834 ± 0.27
24 | UAGGAGCAAUAUUACGGCAA | – | -1.07 ± 0.2
25 | UAGGAGCAAUAUUACGGCGA | -1.51 ± 0.17 | -1.46 ± 0.18

Row | Sequence | self-splicing fitness (ln) (30 °C) | self-splicing fitness (ln) (37 °C)
26 | UAGGAGCAAUAUUACGGGUU | -4.52 ± 0.42 | -2.56 ± 0.27
27 | UAGGAGCAAUAUUACGUAGA | -1.5 ± 0.2 | -1.06 ± 0.16
28 | UAGGAGCAAUAUUACGUCCG | -0.262 ± 0.28 | 1.13 ± 0.28
29 | UAGGAGCAAUAUUACGUGGU | -3.87 ± 0.29 | -2.26 ± 0.24
30 | UAGGAGCAAUAUUACGUGUG | -2.86 ± 0.15 | -1.72 ± 0.15
31 | UAGGAGCAAUAUUACGUUAA | -1.4 ± 0.28 | -2.55 ± 0.39
32 | UAGGAGCAAUAUUACGUUGU | -3.31 ± 0.26 | -2.35 ± 0.23
33 | UAGUAGCAAUAUUACGAAAC | – | -2.13 ± 0.45
34 | UAGUAGCAAUAUUACGAAGU | -2.42 ± 0.24 | -2.07 ± 0.33
35 | UAGUAGCAAUAUUACGAAUA | -1.33 ± 0.23 | -0.977 ± 0.21
36 | UAGUAGCAAUAUUACGAAUC | -2.9 ± 0.48 | –
37 | UAGUAGCAAUAUUACGAAUU | -4.36 ± 0.36 | -2.27 ± 0.27
38 | UAGUAGCAAUAUUACGACGA | -0.284 ± 0.18 | 0.242 ± 0.16
39 | UAGUAGCAAUAUUACGACGU | -1.23 ± 0.11 | -0.175 ± 0.095
40 | UAGUAGCAAUAUUACGAGAC | – | -1.37 ± 0.39
41 | UAGUAGCAAUAUUACGAGCG | -0.586 ± 0.095 | 0.438 ± 0.12
42 | UAGUAGCAAUAUUACGAUAA | -3.02 ± 0.36 | -1.18 ± 0.2
43 | UAGUAGCAAUAUUACGAUGG | -2.93 ± 0.12 | -1.54 ± 0.11
44 | UAGUAGCAAUAUUACGAUUU | -1.45 ± 0.1 | -0.988 ± 0.12
45 | UAGUAGCAAUAUUACGCAAG | -2.78 ± 0.45 | -1.25 ± 0.24
46 | UAGUAGCAAUAUUACGCAUU | -3.97 ± 0.21 | -1.52 ± 0.14
47 | UAGUAGCAAUAUUACGCCGG | -1.64 ± 0.21 | -0.466 ± 0.24
48 | UAGUAGCAAUAUUACGCGGA | -3.56 ± 0.47 | -0.643 ± 0.17
49 | UAGUAGCAAUAUUACGCGUC | -3.22 ± 0.38 | -1.88 ± 0.36
50 | UAGUAGCAAUAUUACGCUUG | -0.659 ± 0.092 | -0.506 ± 0.13

Row | Sequence | self-splicing fitness (ln) (30 °C) | self-splicing fitness (ln) (37 °C)
51 | UAGUAGCAAUAUUACGGAAC | -2.97 ± 0.3 | -3.42 ± 0.42
52 | UAGUAGCAAUAUUACGGGAA | -2.79 ± 0.32 | -1.65 ± 0.29
53 | UAGUAGCAAUAUUACGGUCC | – | -1.53 ± 0.35
54 | UAGUAGCAAUAUUACGUACA | -1.05 ± 0.064 | -0.269 ± 0.081
55 | UAGUAGCAAUAUUACGUAGC | -3.52 ± 0.22 | -1.37 ± 0.2
56 | UAGUAGCAAUAUUACGUCAU | -3.57 ± 0.37 | –
57 | UAGUAGCAAUAUUACGUGAU | -3.84 ± 0.33 | -2.18 ± 0.28
58 | UAGUAGCAAUAUUACGUGGG | -3.26 ± 0.25 | -1.41 ± 0.17
59 | UAGUAGCAAUAUUACGUGUA | -3.16 ± 0.21 | -0.527 ± 0.12
60 | UAGUAGCAAUAUUACGUUAG | -1.52 ± 0.17 | -1.97 ± 0.21
61 | UAGUAGCAAUAUUACGUUCA | -0.66 ± 0.15 | 0.327 ± 0.15
62 | UAGUAGCAAUAUUACGUUCC | -4.21 ± 0.35 | -0.984 ± 0.19
63 | UAGUAGCAAUAUUACGUUGU | -4.09 ± 0.25 | -2.13 ± 0.14
64 | UAGUAGCAAUAUUACGUUUU | -3.14 ± 0.14 | -2.27 ± 0.16
65 | UAUAAGCAAUAUUACGAAGA | -2.72 ± 0.24 | -1.66 ± 0.16
66 | UAUAAGCAAUAUUACGACAG | -0.587 ± 0.11 | -0.0617 ± 0.15
67 | UAUAAGCAAUAUUACGACCU | 0.317 ± 0.2 | -0.146 ± 0.23
68 | UAUAAGCAAUAUUACGACUA | 0.0842 ± 0.075 | 0.29 ± 0.094
69 | UAUAAGCAAUAUUACGAGUC | -1.69 ± 0.32 | –
70 | UAUAAGCAAUAUUACGAGUG | 0.0329 ± 0.08 | -0.16 ± 0.099
71 | UAUAAGCAAUAUUACGCACU | 0.11 ± 0.12 | -0.923 ± 0.12
72 | UAUAAGCAAUAUUACGCCCA | -0.492 ± 0.13 | -0.495 ± 0.2
73 | UAUAAGCAAUAUUACGCCCG | 0.0737 ± 0.21 | 0.591 ± 0.3
74 | UAUAAGCAAUAUUACGCCGU | -1.41 ± 0.49 | –
75 | UAUAAGCAAUAUUACGCGAA | -1.09 ± 0.15 | -0.98 ± 0.16

Row | Sequence | self-splicing fitness (ln) (30 °C) | self-splicing fitness (ln) (37 °C)
76 | UAUAAGCAAUAUUACGCGGG | -2.17 ± 0.14 | -1.89 ± 0.18
77 | UAUAAGCAAUAUUACGCUGG | -1.44 ± 0.13 | -0.93 ± 0.18
78 | UAUAAGCAAUAUUACGCUUA | -1.88 ± 0.27 | -0.653 ± 0.2
79 | UAUAAGCAAUAUUACGGGCU | -2.64 ± 0.31 | -1.71 ± 0.31
80 | UAUAAGCAAUAUUACGGGUU | -3.04 ± 0.16 | -3.53 ± 0.23
81 | UAUAAGCAAUAUUACGGUAG | -1.59 ± 0.077 | -0.912 ± 0.095
82 | UAUAAGCAAUAUUACGGUGG | -1.67 ± 0.13 | -0.746 ± 0.13
83 | UAUAAGCAAUAUUACGUAUG | -1.31 ± 0.091 | -0.577 ± 0.12
84 | UAUAAGCAAUAUUACGUCGC | -3.29 ± 0.28 | -2.24 ± 0.37
85 | UAUAAGCAAUAUUACGUGUA | -1.48 ± 0.1 | -0.896 ± 0.1
86 | UAUCAGCAAUAUUACGACAU | -0.823 ± 0.012 | -0.0787 ± 0.032
87 | UAUCAGCAAUAUUACGAGGC | – | -2.77 ± 0.37
88 | UAUCAGCAAUAUUACGAUAC | -3.07 ± 0.28 | -1.85 ± 0.25
89 | UAUCAGCAAUAUUACGAUAU | -2.41 ± 0.11 | -1.64 ± 0.13
90 | UAUCAGCAAUAUUACGCAAG | -0.949 ± 0.074 | 0.273 ± 0.097
91 | UAUCAGCAAUAUUACGCACG | -0.349 ± 0.11 | 0.232 ± 0.14
92 | UAUCAGCAAUAUUACGCAGA | -1.57 ± 0.15 | -1.03 ± 0.1
93 | UAUCAGCAAUAUUACGCGAG | -0.712 ± 0.057 | -0.298 ± 0.071
94 | UAUCAGCAAUAUUACGCGGG | -0.936 ± 0.076 | -1.14 ± 0.098
95 | UAUCAGCAAUAUUACGCGUU | -1.7 ± 0.13 | -1 ± 0.17
96 | UAUCAGCAAUAUUACGCUCU | 0.148 ± 0.12 | 0.416 ± 0.13
97 | UAUCAGCAAUAUUACGCUGG | -3.15 ± 0.25 | -1.62 ± 0.21
98 | UAUCAGCAAUAUUACGGAUA | -2.17 ± 0.24 | -1.85 ± 0.31
